This is an account of results in article PMC9581999.

In this assay the target is FKBP12-rapamycin binding domain of mTOR (FRB).

Consider “FK506 binding protein (FKBP) (from UniProt P62942 1-108) (natural protein)”, for which the bioluminescence of the single-chain molecular strain probe F-R86SG-F (FRB-RLuc86SG-FKBP) in COS-7 cells, 10^-6 M rapamycin for 5 h against vehicle (0.1% DMSO), substrate K5; fold intensity was 1.6 fold and the bioluminescence of the single-chain molecular strain probe F-R86SG-F (FRB-RLuc86SG-FKBP) in COS-7 cells, 10^-6 M rapamycin for 5 h against vehicle (0.1% DMSO), substrate K6; fold intensity was found to be 3.1 fold.
